# From publication PMC7232488
# Legend:
# [1] = test system: WM Gag (HIV-1 (isolate BH10)); experiment: MST
# [2] = test system: Δ1 SP1 Gag (HIV-1 (isolate BH10)); experiment: MST
# [3] = target: Gag (Human immunodeficiency virus 1) (UniProt O93182); details: cited from earlier work
# Chain of Gag (O93182 2-500): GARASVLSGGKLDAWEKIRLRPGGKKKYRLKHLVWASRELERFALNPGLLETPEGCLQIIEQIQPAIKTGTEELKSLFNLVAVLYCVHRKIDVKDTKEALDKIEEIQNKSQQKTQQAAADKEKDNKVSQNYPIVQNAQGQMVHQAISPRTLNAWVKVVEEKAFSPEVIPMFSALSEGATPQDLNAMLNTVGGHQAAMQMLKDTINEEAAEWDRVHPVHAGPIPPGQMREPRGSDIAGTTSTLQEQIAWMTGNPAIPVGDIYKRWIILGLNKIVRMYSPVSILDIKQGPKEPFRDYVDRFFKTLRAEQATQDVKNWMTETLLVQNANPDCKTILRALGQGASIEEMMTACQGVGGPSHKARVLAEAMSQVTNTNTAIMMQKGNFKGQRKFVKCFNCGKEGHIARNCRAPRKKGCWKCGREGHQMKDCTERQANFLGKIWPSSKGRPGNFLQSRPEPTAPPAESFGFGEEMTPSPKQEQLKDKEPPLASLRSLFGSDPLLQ
Substance,binding signal (fold decrease in affinity vs WT Gag) [1],binding signal (fold difference vs WT Gag) [2],Kd [3] [µM]
Ψ RNA,3.5,2,
Gag (from UniProt O93182),,,5.5
reverse complement RNA (non-Ψ control),,2,
